Test results taken from patent publication US20140274906A1 (NONO, published 2014).
No end group written: not given here.

T1: ND2 310-321 peptide (human)
T1 peptide: NVKMKWQFEHTK

B1: Tat-ND2 310-321 (peptide)
peptide: YGRKKRRQRRRNVKMKWQFEHTK
B2: Src 40-58 peptide (plated, unlabelled) (peptide)
peptide: KPASADGHRGPSAAFVPAA
B3: biotinylated Src40-49 peptide (peptide)
peptide: KPASADGHRG
modifications: also: biotinylated, position not given here
notes: Labelled probe; also called bio-Src 40-49; Bio-Src40-49
B4: biotinylated Src 40-58 peptide (peptide)
peptide: KPASADGHRGPSAAFVPAA
modifications: also: biotinylated, position not given here
notes: Probe in dot blots (~15 ug/ml) and ELISA (6 uM); also called biotin-Src 40-58; Biotin-Src 40-58
B5: biotinylated ND2 310-321 (peptide)
peptide: NVKMKWQFEHTK
modifications: also: biotinylated, position not given here
B6: Src40-49-Tat (peptide)
peptide: KPASADGHRGYGRKKRRQRRR
B7: biotinylated scrambled Src 40-49 control peptide (peptide)
peptide: GAAKRPSDGH
modifications: also: biotinylated, position not given here
notes: also called Bio-sSrc 40-49; sSrc40-49
B8: Src40-49 peptide (peptide)
peptide: KPASADGHRG
B9: GST-ND2.1.4 (AA 289-321) (other)
chain: NLYFYLRLIYSTSITLLPMSNNVKMKWQFEHTK
modifications: also: GST fusion, linker and position in fusion not given here
notes: also called ND2 2.1.4; not shown: glutathione S-transferase (GST) fusion partner
B10: biotinylated scrambled Src 40-58 control peptide (peptide)
peptide: AGSHAPFPSPARAGVAPDA
modifications: also: biotinylated, position not given here
notes: Scrambled negative control; also called sSrc 40-58; B-sSRC 40-58
B11: Tat-Src40-49 (peptide)
peptide: YGRKKRRQRRRKPASADGHRG

Tests used:
[1] = biological target: B3; assay: competition ELISA, competitor against coated ND2 310-321 peptide (FIG. 7)
[2] = biological target: B4; assay: ELISA (FIG. 6)
biotinylated ND2 310-321 [3] = biological target: B5; assay: ELISA, Src peptides plated at ~5 uM (FIG. 5B)
Tat-ND2 310-321 [4] = biological target: B1; assay: ELISA, plate coated with Tat-ND2 310-321 (FIG. 5C)
ND2 310-321 peptide [5] = biological target: T1, ND2 310-321 peptide; assay: ELISA (FIG. 6); ND2 310-321 is the weaker comparator
GST-ND2.1.4 (AA 289-321) = biological target: B9; assay: ELISA, GST-ND2.1.4 coated, biotin-Src 40-58 at 6 uM, SA-HRP (FIG. 2C)
GST-ND2.1 (AA239-321) [6] = biological target: T2, GST-ND2.1 (AA239-321) (human, UniProt P03891 239-321); assay: ELISA, GST-ND2.1 coated, biotin-Src 40-58 at 6 uM, SA-HRP (FIG. 2C)
T2 construct: not shown: glutathione S-transferase (GST) fusion partner

[7] = biological target: T3, GST-ND2 (full length ND2) (human, UniProt P03891 1-347); assay: dot blot, GST proteins spotted, probed with biotinylated Src 40-58 (FIG. 1C)
T3 construct: GST fusion protein, expressed and purified; printed as full length ND2; not shown: glutathione S-transferase (GST) fusion partner

Tat-ND2 310-321 [8] = biological target: B1; assay: ELISA (FIG. 6)
[9] = biological target: B2; assay: ELISA (FIG. 5B)
Tat-Src40-49 = biological target: B11; assay: dot blot (FIG. 5A)
Src40-49 peptide = biological target: B8; assay: dot blot (FIG. 5A)
Src40-49-Tat = biological target: B6; assay: dot blot (FIG. 5A)
Tat-ND2 310-321 [10] = biological target: B1; assay: competition ELISA, competitor against biotinylated Src40-49, Tat-ND2 310-321 pre-coated (FIG. 5E)
biotinylated ND2 310-321 [11] = biological target: B5; assay: dot blot, Src fragments spotted, probed with Bio-ND2 310-321 (FIG. 5A)
[12] = biological target: B4; assay: ELISA (FIG. 2C)
[13] = biological target: B10; assay: dot blot of GST-ND2 constructs (FIG. 2B)
[14] = biological target: T3, GST-ND2 (full length ND2); assay: dot blot of GST-ND2 constructs (FIG. 2B)
GST-ND2.1 (AA239-321) [15] = biological target: T2, GST-ND2.1 (AA239-321); assay: dot blot of GST-ND2 constructs (FIG. 2B)
ND2 310-321 peptide [16] = biological target: T1, ND2 310-321 peptide; assay: competition ELISA, competitor against biotinylated Src40-49 (FIG. 5D)

T3 sequence (P03891 whole entry, the tested form may be a part): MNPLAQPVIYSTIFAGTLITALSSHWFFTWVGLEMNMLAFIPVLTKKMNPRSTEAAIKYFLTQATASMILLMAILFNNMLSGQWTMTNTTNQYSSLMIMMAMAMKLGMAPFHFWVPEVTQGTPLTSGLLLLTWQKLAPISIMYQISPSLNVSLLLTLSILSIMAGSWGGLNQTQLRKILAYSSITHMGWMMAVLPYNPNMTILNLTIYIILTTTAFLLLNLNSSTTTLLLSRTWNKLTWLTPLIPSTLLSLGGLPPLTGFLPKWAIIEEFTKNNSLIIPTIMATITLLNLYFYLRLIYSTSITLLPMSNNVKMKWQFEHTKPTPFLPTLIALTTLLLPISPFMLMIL

Does B1 bind [1]?
Result: binds

Does B1 bind [2]?
Result: binds

Does B2 bind (biotinylated ND2 310-321 [3])?
Result: binds

Does B3 bind (Tat-ND2 310-321 [4])?
Result: binds

Which results are given for B4?
binding result (ND2 310-321 peptide [5]): binds; binding result (GST-ND2.1.4 (AA 289-321)): binds; binding result (GST-ND2.1 (AA239-321) [6]): binds; binding result [7]: binds; binding result (Tat-ND2 310-321 [8]): binds

Which results are given for B5?
binding result [9]: binds; binding result (Tat-Src40-49): binds; binding result (Src40-49 peptide): binds; binding result (Src40-49-Tat): binds

What does the source list for B6?
binding result (Tat-ND2 310-321 [10]): binds; binding result (biotinylated ND2 310-321 [11]): binds

Does B7 bind (Tat-ND2 310-321 [4])?
Result: no binding

Does B8 bind (biotinylated ND2 310-321 [11])?
Result: binds

Does B9 bind [12]?
Result: binds

Does B9 bind [13]?
Result: no binding (tested: ~15 ug/ml biotinylated peptide)

What does the source list for B10?
binding result [14]: no binding (tested: ~15 ug/ml biotinylated peptide); binding result (GST-ND2.1 (AA239-321) [15]): no binding (tested: ~15 ug/ml biotinylated peptide)

Does B11 bind (biotinylated ND2 310-321 [11])?
Result: binds

Does B11 bind (ND2 310-321 peptide [16])?
Result: binds
